Target: the molecule itself
Test: cryo-EM structure; Der^Δ-p97^Δ complex from Sf9 with ATP·BeFx added through the whole purification; closed class 3.65 Å and open (state U) class 4.51 Å

B1: human Derlin-1 Δ215–239, C-terminal twin strep tag (Sf9) (natural protein, UniProt Q9BUN8-1 1-251, looked up)
chain: MSDIGDWFRSIPAITRYWFAATVAVPLVGKLGLISPAYLFLWPEAFLYRFQIWRPITATFYFPVGPGTGFLYLVNLYFLYQYSTRLETGAFDGRPADYLFMLLFNWICIVITGLAMDMQLLMIPLIMSVLYVWAQLNRDMIVSFWFGTRFKACYLPWVILGFNYIIGGSVINELIGNLVGHLYFFLMFRYPMDLGGRNFLSTPQFLYRWLPSRRHNWGQGFRLGDQ
notes: Derlin-1, human, cDNA NCBI NM_024295.6, whole protein with residues 215 to 239 (loop between TM6 and the SHP box) deleted; a PreScission Protease cleavage site stands before the C-terminal twin strep tag; Cleavage of the tag is not described; also called Der^Δ; truncated Derlin-1; source: Sf9, baculovirus (pFastBac-Dual), coexpressed with p97 Δ1–20, co-purified (Strep-Tactin, SEC in GDN); not …
stoichiometry N: 4

Reference: PMC10575581 (Science Advances, 2023)
